These results are taken from paper PMC2811263 (Arteriosclerosis, thrombosis, and vascular biology, 2009).

Assay [1] has as its target T1, wild-type human GPIHBP1 (glycosylphosphatidylinositol-anchored high-density lipoprotein-binding protein 1) (human, UniProt Q8IV16 21-151).
T1 sequence (looked up): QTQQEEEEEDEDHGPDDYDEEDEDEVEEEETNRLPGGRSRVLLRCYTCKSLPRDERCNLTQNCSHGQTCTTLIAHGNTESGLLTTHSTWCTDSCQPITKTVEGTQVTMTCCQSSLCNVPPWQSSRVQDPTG
The assay can be described thus: binding of added LPL to transfected cells, bound LPL quantified by ELISA. On the technique in general: ELISA stands for enzyme-linked immunosorbent assay.

Assay [2] concerns the target T2, wild-type mouse GPIHBP1 (mouse, UniProt Q9D1N2 23-198).
T2 sequence (looked up): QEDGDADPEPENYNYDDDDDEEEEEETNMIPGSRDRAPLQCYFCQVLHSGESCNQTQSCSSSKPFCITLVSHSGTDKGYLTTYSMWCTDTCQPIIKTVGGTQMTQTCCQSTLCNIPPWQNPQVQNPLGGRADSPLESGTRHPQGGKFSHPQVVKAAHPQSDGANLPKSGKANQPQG
The assay is described as above.

B1: avian lipoprotein lipase (LPL) (enzyme, UniProt P11602 26-490, looked up)
chain: SDPEAEMNFEGIESKFSLRTPAEPDEDVCYLVPGQMDSLAQCNFNHTSKTFVVIHGWTVTGMYESWVPKLVDALYKREPDSNVIVVDWLVRAQQHYPVSAAYTKLVGKDVAMFIDWMEEKFNYPLNNVHLLGYSLGAHAAGIAGSLTKKKVNRITGLDPAGPTFEYADAPIRLSPDDADFVDVLHTYTRGSPDRSIGIQKPVGHIDIYPNGGGFQPGCNLGEALRLIAEKGFSDVDQLVKCSHERSIHLFIDSLLYEEKPSMAYRCNTKEAFEKGLCLSCRKNRCNNLGYKVNRVRTKRNTKMYLKTRAQMPYKVFHYQVKIHFFGKTNVTKVDQPFLISLYGTLDESENIPFTLPEVSSNKTFSFLIYTEVDIGDLLMLKLQWEKDTFFSWSDWWTPFAFTIQRVRVKSGETQKKVVFCSRDGSSRLGKGEEAAIFVKCLEQPVSRKRGGAKKASKENSAHESA
On to B1, for which, in assay [1], the “fold more LPL bound than by cells expressing GPIHBP1-Q115P” value amounted to 39.8 fold. Moreover, the “fold more LPL bound than by cells expressing GPIHBP1-Q114P” value in assay [2] was found to be 20.2 fold.
